Data: paper PMC10370059 (bioRxiv, 2023)

Legend:
[1] = biological target: biotinylated Arr3_ΔC loaded with IP6 (bovine) (UniProt P32120); assay: SEC
[2] = biological target: Arr3_ΔC (preactivated arrestin3, truncated after residue 392) (bovine, UniProt P32120); assay: pull-down
[3] = biological target: biotinylated Arr3_ΔC loaded with IP6 (bovine, UniProt P32120, biotin (sulfo-NHS-Biotin, >95% biotinylated)); assay: ELISA

| Molecule | stoichiometry N [1] | binding result [2] | binding result [3] |
| --- | --- | --- | --- |
| biotinylated Arr3_ΔC loaded with IP6 (from UniProt P32120 1-392) (domain or fragment) | 3 |  |  |
| Fab7 (Fab, V domains shown) VH: EVQLVESGGGLVQPGGSLRLSCAASGFNVSSSYIHWVRQAPGKGLEWVASISSYYGYTYYADSVKGRFTISADTSKNTAYLQMNSLRAEDTAVYYCARKSMYHRGWGWLSWVYGAMDYWGQGTLVTVSS VL: DIQMTQSPSSLSASVGDRVTITCRASQSVSSAVAWYQQKPGKAPKLLIYSASSLYSGVPSRFSGSRSGTDFTLTISSLQPEDFATYYCQQSYYYPITFGQGTKVEIK |  | binds | binds |
